B1: LINE1-mini (parent)
chain: GGCAGAGCUCAACACAGCGUGGCAAAGUGGCUGUGGCUAGACUGCC

Variants of: B1
Assay: self-cleavage, relative activity (ratio to wild type); higher = more cleavage; in vitro, sequencing; the parent is a self-cleaving ribozyme
GGCAGAGCUCAACAAAGCGUGGCAAAGUGGCUGUGGCUAGACUGCG [C15A C46G] gave a self-cleavage of 0.05. For GGCAGAGCUCAACACAGCGUGACAAAGUUGCUGUGGCUAGACUGCC [G22A G29U], the self-cleavage was 0.65. GGCAGAGCUCAACACAGCGUGGCAAAGUGGCGGUGGAUAGACUGCC [U32G C37A] gave a self-cleavage of 0.09. For GGCAGAGCUCAACACAGCGUGGCAAAGUGGCUGUGGCUAGAUUGAC [C42U C45A], the self-cleavage was 0.14. For GGCAUAGCUCAACACAGCGUGGCAAAGUGGCUGUGGCUAGAUUGCC [G5U C42U], the self-cleavage was 0.08. In the case of GGCAGAGCUCAACAUAGCGUGGCAAAGUGGCUGUGCCUAGACUGCC [C15U G36C], the self-cleavage is reported as 0.06. GGCCGAGCUCAACACAACGUGGCAAAGUGGCUGUGGCUAGACUGCC [A4C G17A] showed a self-cleavage of 0.08. GGCAGAGCUCAACACAGCAUGGCAAAGUUGCUGUGGCUAGACUGCC [G19A G29U] gave a self-cleavage of 0.94. Work on GGCAGAGCUCAACACAGCGUGGCAAAGUGUCUGGGGCUAGACUGCC [G30U U34G] yielded a self-cleavage of 0.09. GGCAGAGCUCAACACAGCGUGGCAAAGUUGCUGUGGCAAGACUGCC [G29U U38A] showed a self-cleavage of 0.4. GGCAGAGCUCAACAAAGCGUGGCAAAGUGGCUGCGGCUAGACUGCC [C15A U34C] showed a self-cleavage of 0.06. GGCAGAGCUCAACACAGCGUGGCAGAAUGGCUGUGGCUAGACUGCC [A25G G27A] gave a self-cleavage of 0.37. In the case of GGCAGAGCUCAACACAGGGUGGCAAAGUGGCUGUGGCGAGACUGCC [C18G U38G], the self-cleavage is reported as 0.02. Work on GGCAGAGCUCAACACAGCGUGGCACAGUGCCUGUGGCUAGACUGCC [A25C G30C] yielded a self-cleavage of 1.64. With GGCAGACCUCAACACAGCGUGGCAAAGUGGCUGUGGCUAGACUUCC [G7C G44U] the self-cleavage was 0.15. With GGCAGAGCUCAACACAGCGUGGCAAAGUGGCAAUGGCUAGACUGCC [U32A G33A] the self-cleavage was 0.08. GGCAGAGAUCAACACAGCGUGGCAAAGUGGCUGUGGCUACACUGCC [C8A G40C] gave a self-cleavage of 0.22. In the case of GGCAGAGCUCAACACAGCGUGGCCAAGUGGCUGUGGCUAGACUGCA [A24C C46A], the self-cleavage is reported as 0.32. For GGCAGAGCUCAACACAGAGUGGCAAAGUGGCUGUGGCUAGACUGUC [C18A C45U], the self-cleavage was 0.58. Work on GGCAGAGCUCAACACAGCGUGGCAAAGUGGCUGUGGCGAGACCGCC [U38G U43C] yielded a self-cleavage of 0.05. In the case of GACAGAGCUCAACACAGCGCGGCAAAGUGGCUGUGGCUAGACUGCC [G2A U20C], the self-cleavage is reported as 0.48. GGCAGAGCUCUACACAGCGUGGCAUAGUGGCUGUGGCUAGACUGCC [A11U A25U] gave a self-cleavage of 0.37. With GGCAGAGCUUAACACAGCGUGGCAAAGUGGCUGUGGCUACACUGCC [C10U G40C] the self-cleavage was 0.04. With GGCAGAGCUCAACACAGCGUGGGAAAGUGGCUGUGGCUACACUGCC [C23G G40C] the self-cleavage was 0.13. With GGCAGAGCUCAACACAGCUUGGCAAAGUGGCUGUGGCUACACUGCC [G19U G40C] the self-cleavage was 0.05. GGCAGAGCUCGACACAGCGUGGCUAAGUGGCUGUGGCUAGACUGCC [A11G A24U] gave a self-cleavage of 0.02. Variant GGCAGAGCUCAACAAAGCGUGGCAAAGUGGCUGUGGCUAGGCUGCC [C15A A41G] has a self-cleavage of 0.06. Work on GGCAGAGCUCAGCACAGCGUGGCAAAGUGGCUGUCGCUAGACUGCC [A12G G35C] yielded a self-cleavage of 0.05. With GGCAGAGCUCAACACAGCCUCGCAAAGUGGCUGUGGCUAGACUGCC [G19C G21C] the self-cleavage was 0.27. GGCAGAGCUCAACACAGCGUGGCAAAGUGGCUGUGGGUAGAGUGCC [C37G C42G] gave a self-cleavage of 0.02. For GGCAGAGCUCACCACAGCGUGGCAACGUGGCUGUGGCUAGACUGCC [A12C A26C], the self-cleavage was 0.02. GGCAGACCUCAACACAGCGUGGCAAAGUGGCUAUGGCUAGACUGCC [G7C G33A] showed a self-cleavage of 0.06. GGCAGAGCUCAAGACAGCGUGCCAAAGUGGCUGUGGCUAGACUGCC [C13G G22C] showed a self-cleavage of 0.05. GGCAGAGCUCAACACAGCGUGGCAAAGUGGCCGUGGCUAUACUGCC [U32C G40U] gave a self-cleavage of 0.07. GGCAGAGCUGCACACAGCGUGGCAAAGUGGCUGUGGCUAGACUGCC [C10G A11C] gave a self-cleavage of 0.02. For GGCAGAGCGCGACACAGCGUGGCAAAGUGGCUGUGGCUAGACUGCC [U9G A11G], the self-cleavage was 0.02. Variant GGCACAGCUCAACACAGCGUGGCAAAGUGGCUGUGGCUCGACUGCC [G5C A39C] has a self-cleavage of 0.07. For GGCAGAUCUCAACACAGCGUGGCAAAGUGGCGGUGGCUAGACUGCC [G7U U32G], the self-cleavage was 0.11. GGCAGAGCUCAACACAGCGUGACAAAGUGGCUGUGGCUAGUCUGCC [G22A A41U] gave a self-cleavage of 0.66. GGCAGAGCUCAACACAGCGUGUCAAAGUGGCUGUGGCUAUACUGCC [G22U G40U] gave a self-cleavage of 0.15. With GGCAGAGCUCAACACAGCGGGGCAAACUGGCUGUGGCUAGACUGCC [U20G G27C] the self-cleavage was 0.38. In the case of GGCAGAGCUCAAGACAGCGUGGUAAAGUGGCUGUGGCUAGACUGCC [C13G C23U], the self-cleavage is reported as 0.46. Variant GGCAGAGCUCAACACAGCGGGGCAAAGUGGCUGUGGCCAGACUGCC [U20G U38C] has a self-cleavage of 0.26. In the case of GGCAGAGCUCAAGACAGCGUGGCAAAAUGGCUGUGGCUAGACUGCC [C13G G27A], the self-cleavage is reported as 0.27. In the case of GGCAGAGCGCAACACAGCGUGGCAAGGUGGCUGUGGCUAGACUGCC [U9G A26G], the self-cleavage is reported as 0.04. Variant GGAAGAGCUCUACACAGCGUGGCAAAGUGGCUGUGGCUAGACUGCC [C3A A11U] has a self-cleavage of 0.06. Variant GGCAGACCUCAACACAGCGUGGCAAAGUGGCUGUGGCUAGCCUGCC [G7C A41C] has a self-cleavage of 0.09. GGCAGAGCUCAACACAGCGUGGCAACGUGGCUGUGGGUAGACUGCC [A26C C37G] showed a self-cleavage of 0.02. Work on GGCAGAGCUCAACACAGCGUGGCAUAGUGGCUGUGGCUACACUGCC [A25U G40C] yielded a self-cleavage of 0.09. For GACAGAGCUCAUCACAGCGUGGCAAAGUGGCUGUGGCUAGACUGCC [G2A A12U], the self-cleavage was 0.41. In the case of GGCAGAGCUCAACACAGCGUGGCAAAGUGGCUGUGCCUUGACUGCC [G36C A39U], the self-cleavage is reported as 0.23. GCCAGAGCUCAACACAGCGUGGCAAAGUGGCUGUGGCUAGACUGUC [G2C C45U] gave a self-cleavage of 0.19. Work on CGCAGAGCUCAACACAGCGUGGCAAACUGGCUGUGGCUAGACUGCC [G1C G27C] yielded a self-cleavage of 0.14. With GGCAGAGCUCAACACAGCGUGACAAAGUGGCUGUGGCUAGACCGCC [G22A U43C] the self-cleavage was 0.07. For GGCAUAGCUCAACACAGCGUGGCAAAGUGGCUGUGGCUAGACGGCC [G5U U43G], the self-cleavage was 0.1. In the case of GGCAGAGCUCAACGCAUCGUGGCAAAGUGGCUGUGGCUAGACUGCC [A14G G17U], the self-cleavage is reported as 0.09.

Source: the RNAGym collection of RNA variant scans (doi:10.7554/elife.90254)
